# According to patent US6780984B2, “Method for prognosing cancer and the proteins involved” (Northwestern University, priority 2000, dated 2004):
# Key:
# [1] = tested on: PC3 cells; test: Soft agar assay (anchorage-independent growth); assay type: cell-based, human; details: stable overexpression in PC3 sublines
# Method: FIGS. 4A-4D show the effect of calreticulin overexpression on colony formation of PC3 cells in a soft agar assay, PC3 (FIG. 4A), Mock (FIG. 4B), Crt 35 (FIG. 4C) and Crt 59 (FIG. 4). The soft agar assay was conducted in 6-well plates. The bottom agar is 2 ml 0.6% noble agar containing 1×RPMI 1640 medium supplemented with 10% fetal bovine serum (FBS). After the preparation of bottom agar, 1 ml of 0.3% top agar containing 5,000 cells and 1×RPMI 1640 medium supplemented with 10% FBS was added to form the top layer. The assay for each PC3 subline was carried out in duplicate and was repeated at least 3 times.
# Colonies with greater than 125 um in diameter were counted in the quantification. Error bars represent standard error means (SEM).
# Soft agar assay: The soft agar assay was conducted in 6-well plates. The bottom agar is 2 ml 0.6% noble agar containing 1×RPMI 1640 medium supplemented with 10% FBS. After the preparation of bottom agar, 1 ml of 0.3% top agar containing 5,000 cells and 1×RPMI 1640 medium supplemented with 10% FBS was added to form the top layer. The assay for each PC3 subline was carried out in duplicate and was repeated at least 3 times.
# [2] = tested on: TSU prostate cancer cells; test: Anchorage-independent growth of TSU cells; assay type: cell-based, human; details: overexpression in TSU cells
# Description: Anchorage-independent growth in soft agar correlates with the metastatic potential of cancer cells [Cifone and Fidler, Proc. Nat. Acad. Sci. USA, 77:1039-43 (1980)].
# [3] = tested on: prostate cancer cell; test: Effect of calreticulin overexpression on other cellular functions; assay type: cell-based
# [4] = tested on: xenograft rat Dunning AT3.1 prostate cancer cells; test: Metastasis of AT3.1 xenografts in nude mice; assay type: in vivo; details: restoration of calreticulin expression
# [5] = Repeat A of the Proline-rich Domain; read-out: Kd, high affinity Ca++ binding; cited from earlier work
molecule,measurement,setting,value
"calreticulin: multi-functional Ca++ binding protein of the endoplasmic reticulum, human SEQ ID NO:36; overexpressed from pcDNA3.1/crt (protein) MLLSVPLLLGLLGLAVAEPAVYFKEQFLDGDGWTSRWIESKHKSDFGKFVLSSGKFYGDEEKDKGLQTSQDARFYALSASFEPFSNKGQTLVVQFTVKHEQNIDCGGGYVKLFPNSLDQTDMHGDSEYNIMFGPDICGPGTKKVHVIFNYKGKNVLINKDIRCKDDEFTHLYTLIVRPDNTYEVKIDNSQVESGSLEDDWDFLPPKKIKDPDASKPEDWDERAKIDDPTDSKPEDWDKPEHIPDPDAKKPEDWDEEMDGEWEPPVIQNPEYKGEWKPRQIDNPDYKGTWIHPEIDNPEYSPDPSIYAYDNFGVLGLDLWQVKSGTIFDNFLITNDEAYAEEFGNETWGVTKAAEKQMKDKQDEEQRLKEEEEDKKRKEEEEAEDKEDDEDKDEDEEDEEDKEEDEEEDVPGQAKDEL",colony formation in soft agar,[1],significantly inhibited the size and number of the PC3 colonies
same,anchorage-independent growth,[2],markedly inhibited anchorage-independent growth
same,Ca++ ionophore-induced apoptosis,[3],inhibits Ca^((+))((+)) ionophore-induced apoptosis
same,cell attachment,[3],enhances cell attachment
same,cell proliferation,[3],inhibits prostate cancer cell proliferation
same,metastasis of xenograft,[4],markedly inhibits the metastasis
same,Kd,[5],1600 nM
